One block for each molecule: values may come before it.
What was measured:
IL-36R (20-220)-His6-Avi = IL-36R (20-220)-His6-Avi (human, UniProt Q9HB29, biotin on the Avi tag (in vitro, BirA)); experiment: crystal structure
[1] = patients who had received at least one dose; cited from earlier work
IL-36R (20-333)-His6-Avi = molecular target: T1, IL-36R (20-333)-His6-Avi (human, UniProt Q9HB29 20-333, biotin on the Avi tag (in vitro, BirA)); experiment: SPR
T1 sequence (looked up): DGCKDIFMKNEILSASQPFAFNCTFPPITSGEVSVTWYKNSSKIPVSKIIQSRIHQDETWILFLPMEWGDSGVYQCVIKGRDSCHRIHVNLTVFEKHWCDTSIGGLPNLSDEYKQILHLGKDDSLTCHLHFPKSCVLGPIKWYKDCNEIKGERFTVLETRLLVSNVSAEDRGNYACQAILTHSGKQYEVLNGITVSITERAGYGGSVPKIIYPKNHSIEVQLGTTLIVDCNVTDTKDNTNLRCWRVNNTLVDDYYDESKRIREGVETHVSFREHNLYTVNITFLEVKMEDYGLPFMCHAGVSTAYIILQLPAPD

binding result (IL-36R (20-220)-His6-Avi): binds
B1: spesolimab-Fab (Fab, V domains shown)
VH: QVQLVQSGAEVKKPGASVKVSCKASGYSFTSSWIHWVKQAPGQGLEWMGEINPGNVRTNYNENFRNKVTMTVDTSISTAYMELSRLRSDDTAVYYCTVVFYGEPYFPYWGQGTLVTVSS
VL: QIVLTQSPGTLSLSPGERATMTCTASSSVSSSYFHWYQQKPGQAPRLWIYRTSRLASGVPDRFSGSGSGTDFTLTISRLEPEDAATYYCHQFHRSPLTFGAGTKLEIK

B2: spesolimab: IL-36R blocking antibody, positive control; approved for flares of GPP (antibody, chains of the INN, looked up, V domains shown)
VH: B1 VH
VL: B1 VL
anti-drug antibodies observed, patients [1]: 23 out of 50

Kd (IL-36R (20-333)-His6-Avi): ~600 nM
B3: Human IL-36α (aa 6–158) (ligand, UniProt Q9UHA7 6-158, looked up)
chain: KIDTPQQGSIQDINHRVWVLQDQTLIAVPRKDRMSPVTIALISCRHVETLEKDRGNPIYLGLNGLNLCLMCAKVGDQPTLQLKEKDIMDLYNQPEPVKSFLFYHSQSGRNSTFESVAFPGWFIAVSSEGGCPLILTQELGKANTTDFGLTMLF
